Measured values as given in article PMC8020760, “Assembly of a dsRNA synthesizing complex: RNA-DEPENDENT RNA POLYMERASE 2 contacts the largest subunit of NUCLEAR RNA POLYMERASE IV” (Proceedings of the National Academy of Sciences of the …, 2021).

T1: recombinant RNA-DEPENDENT RNA POLYMERASE 2 (RDR2), wild type, with N-terminal V5 epitope and 6xHis tags (A. thaliana, UniProt O82504 1-1133)
T1 sequence (looked up): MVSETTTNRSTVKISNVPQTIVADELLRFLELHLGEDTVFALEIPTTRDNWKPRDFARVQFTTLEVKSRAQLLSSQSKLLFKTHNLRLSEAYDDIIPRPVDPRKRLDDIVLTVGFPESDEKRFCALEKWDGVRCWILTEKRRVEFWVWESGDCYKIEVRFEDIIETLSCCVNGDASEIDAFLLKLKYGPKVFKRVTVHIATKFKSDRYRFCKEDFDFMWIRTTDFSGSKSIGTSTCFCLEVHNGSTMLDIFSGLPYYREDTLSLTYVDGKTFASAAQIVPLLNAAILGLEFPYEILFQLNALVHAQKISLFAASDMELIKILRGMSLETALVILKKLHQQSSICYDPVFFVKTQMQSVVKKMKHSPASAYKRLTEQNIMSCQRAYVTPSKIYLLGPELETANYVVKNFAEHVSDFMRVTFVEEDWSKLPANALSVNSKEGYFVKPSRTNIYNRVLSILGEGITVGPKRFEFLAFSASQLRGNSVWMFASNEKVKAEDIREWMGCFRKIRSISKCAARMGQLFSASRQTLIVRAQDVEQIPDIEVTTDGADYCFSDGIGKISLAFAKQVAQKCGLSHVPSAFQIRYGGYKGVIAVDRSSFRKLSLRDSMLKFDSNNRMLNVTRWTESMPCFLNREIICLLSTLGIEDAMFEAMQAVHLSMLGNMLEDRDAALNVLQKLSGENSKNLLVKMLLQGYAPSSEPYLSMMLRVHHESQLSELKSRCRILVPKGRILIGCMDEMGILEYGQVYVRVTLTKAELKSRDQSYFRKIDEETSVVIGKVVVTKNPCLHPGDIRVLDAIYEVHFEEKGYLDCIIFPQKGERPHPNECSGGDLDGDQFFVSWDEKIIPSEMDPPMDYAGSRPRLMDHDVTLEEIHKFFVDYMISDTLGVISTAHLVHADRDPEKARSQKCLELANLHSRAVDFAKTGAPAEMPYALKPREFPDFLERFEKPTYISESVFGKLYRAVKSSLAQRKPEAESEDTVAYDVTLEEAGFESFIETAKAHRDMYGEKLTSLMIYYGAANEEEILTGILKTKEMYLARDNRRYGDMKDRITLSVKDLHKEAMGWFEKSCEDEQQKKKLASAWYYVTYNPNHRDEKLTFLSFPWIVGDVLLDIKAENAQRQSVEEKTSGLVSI

B1: recombinant NRPD1_(1–300) with His and FLAG tags, made in E. coli (domain or fragment, A. thaliana, UniProt Q9LQ02 1-300, looked up)
chain: MEDDCEELQVPVGTLTSIGFSISNNNDRDKMSVLEVEAPNQVTDSRLGLPNPDSVCRTCGSKDRKVCEGHFGVINFAYSIINPYFLKEVAALLNKICPGCKYIRKKQFQITEDQPERCRYCTLNTGYPLMKFRVTTKEVFRRSGIVVEVNEESLMKLKKRGVLTLPPDYWSFLPQDSNIDESCLKPTRRIITHAQVYALLLGIDQRLIKKDIPMFNSLGLTSFPVTPNGYRVTEIVHQFNGARLIFDERTRIYKKLVGFEGNTLELSSRVMECMQYSRLFSETVSSSKDSANPYQKKSDT
notes: NRPD1, A. thaliana, amino acids 1-300 of 1,453; More in SI Appendix, Methods; also called NRPD1_(1–300)-FLAG; FLAG-tagged NRPD1_(1–300); source: E. coli (pET28 vector), purified (nickel-NTA by the methods; by its C-terminal FLAG tag by the results); not shown: FLAG, C-terminal, kept
B2: recombinant RDR2_(771–970) with His and HA tags, made in E. coli (domain or fragment, A. thaliana, UniProt O82504 771-970, looked up)
chain: ETSVVIGKVVVTKNPCLHPGDIRVLDAIYEVHFEEKGYLDCIIFPQKGERPHPNECSGGDLDGDQFFVSWDEKIIPSEMDPPMDYAGSRPRLMDHDVTLEEIHKFFVDYMISDTLGVISTAHLVHADRDPEKARSQKCLELANLHSRAVDFAKTGAPAEMPYALKPREFPDFLERFEKPTYISESVFGKLYRAVKSSLAQ
notes: The methods give the C-terminal limit as 971, the results and legends as 970; More in SI Appendix, Methods; source: E. coli (pET28 vector), purified (nickel-NTA by the methods; anti-HA resin by the results)

Target: T1, recombinant RNA-DEPENDENT RNA …
Assay: co-IP; purified recombinant proteins, 0.25 µM each, 30 min, room temperature, 50 mM Hepes-KOH pH 7.5, 150 mM NaCl; IP with resin against the tag of one or the other partner (anti-FLAG, anti-V5 or anti-HA); immunoblot
Settings: both partners purified

binding result	Binder
binds	B1

Target: B1
Assay: as above
Settings: both partners purified

binding result	Binder
binds	B2

Target: B1
Assay: peptide or protein array; synthetic peptides (10 ng) dot-blotted onto nitrocellulose, probed with about 200 ng NRPD1_(1–300)-FLAG or RDR2_(771–970)-HA in 8 mL 50 mM Hepes-KOH pH 7.5, 100 mM NaCl, room temperature, 1 h; anti-FLAG-HRP or anti-HA-HRP, chemiluminescence
Settings: both partners purified

binding result	Binder
binds	ISDTLGVISTAHLVH (peptide, UniProt O82504 881-895, looked up, RDR2, A. thaliana; 15-mer of the array; limits worked out from the design; Peptides were 'typically' 15 amino acids long; source: synthetic peptide (Genscript)) [RDR2 peptide 12 of the RDR2_(771–970) peptide array]
binds	EIHKFFVDYMISDTL (peptide, UniProt O82504 871-885, looked up, RDR2, A. thaliana; 15-mer of the array; limits worked out from the design; holds K874; Peptides were 'typically' 15 amino acids long; source: synthetic peptide (Genscript)) [RDR2 peptide 11 of the RDR2_(771–970) peptide array]
binds	RLMDHDVTLEEIHKF (peptide, UniProt O82504 861-875, looked up, RDR2, A. thaliana; 15-mer of the array; limits worked out from the design; holds K874; Peptides were 'typically' 15 amino acids long; source: synthetic peptide (Genscript)) [RDR2 peptide 10 of the RDR2_(771–970) peptide array]

Target: B2
Assay: as above
Settings: both partners purified

binding result	Binder
binds	TEDQPERCRYCTLNT (peptide, UniProt Q9LQ02 111-125, looked up, NRPD1, A. thaliana; 15-mer of the array; limits worked out from the design; holds a CxxC motif; Peptides were 'typically' 15 amino acids long; source: synthetic peptide (Genscript)) [NRPD1 peptide 12 of the NRPD1_(1–300) peptide array]
binds	RVTEIVHQFNGARLI (peptide, UniProt Q9LQ02 231-245, looked up, NRPD1, A. thaliana; 15-mer of the array; limits worked out from the design; Peptides were 'typically' 15 amino acids long; source: synthetic peptide (Genscript)) [NRPD1 peptide 24 of the NRPD1_(1–300) peptide array]
binds	CTLNTGYPLMKFRVT (peptide, UniProt Q9LQ02 121-135, looked up, NRPD1, A. thaliana; 15-mer of the array; limits worked out from the design; holds K131; Peptides were 'typically' 15 amino acids long; source: synthetic peptide (Genscript)) [NRPD1 peptide 13 of the NRPD1_(1–300) peptide array]
binds	RIYKKLVGFEGNTLE (peptide, UniProt Q9LQ02 251-265, looked up, NRPD1, A. thaliana; 15-mer of the array; limits worked out from the design; holds K254 and K255; Peptides were 'typically' 15 amino acids long; source: synthetic peptide (Genscript)) [NRPD1 peptide 26 of the NRPD1_(1–300) peptide array]
binds	INPYFLKEVAALLNK (peptide, UniProt Q9LQ02 81-95, looked up, NRPD1, A. thaliana; 15-mer of the array of 30 peptides over 1-300 that overlap by 5; limits worked out from the design; Peptides were 'typically' 15 amino acids long; source: synthetic peptide (Genscript)) [NRPD1 peptide 9 of the NRPD1_(1–300) peptide array]
binds	GARLIFDERTRIYKK (peptide, UniProt Q9LQ02 241-255, looked up, NRPD1, A. thaliana; 15-mer of the array; limits worked out from the design; holds K254 and K255; Peptides were 'typically' 15 amino acids long; source: synthetic peptide (Genscript)) [NRPD1 peptide 25 of the NRPD1_(1–300) peptide array]
binds	ALLNKICPGCKYIRK (peptide, UniProt Q9LQ02 91-105, looked up, NRPD1, A. thaliana; 15-mer of the array; limits worked out from the design; holds a CxxC motif; Peptides were 'typically' 15 amino acids long; source: synthetic peptide (Genscript)) [NRPD1 peptide 10 of the NRPD1_(1–300) peptide array]
